Earlier results on one substance are cited in publication PMC3417354.

This data set concerns the target PCNA (Homo sapiens) (UniProt P12004).

Chain of PCNA (Homo sapiens) (P12004 whole entry): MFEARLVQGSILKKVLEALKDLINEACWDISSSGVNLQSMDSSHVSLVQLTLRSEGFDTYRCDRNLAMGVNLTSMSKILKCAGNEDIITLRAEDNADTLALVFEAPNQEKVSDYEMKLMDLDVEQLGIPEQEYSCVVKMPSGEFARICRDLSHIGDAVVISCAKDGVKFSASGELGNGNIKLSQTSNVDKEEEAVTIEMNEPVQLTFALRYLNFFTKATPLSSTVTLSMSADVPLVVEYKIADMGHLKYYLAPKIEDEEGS
Chain of p21 peptide 141-160 (P38936 141-160): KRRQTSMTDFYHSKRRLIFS

For the substance “p21 peptide 141-160 (from UniProt P38936)”, the Kd was 88 nM.

In general, Kd refers to the free concentration of one partner at which half of the binding sites on the other are occupied at equilibrium, for simple one-to-one binding.
